Reference: US20240360208A1

Experiments:
[1] = target: monomeric Fcγ receptor FcγRIIIa (human) (UniProt P08637); test: SPR T200, Protein L capture, FcγR at 5 µg/ml, 25 C, pH 7.4
[2] = target: monomeric Fcγ receptor FcγRIIa (human) (UniProt P12318); test: as above
[3] = target: monomeric Fcγ receptor FcγRIIb (human) (UniProt P31994); test: as above
[4] = target: biotinylated human single chain FcRn (human) (UniProt P55899); test: SPR Biacore 8K, sc huFcRn on SA chip, 50 nM antibody, 25 C, pH 5
[5] = target: biotinylated human single chain FcRn (human) (UniProt P55899); test: SPR Biacore 8K, sc huFcRn on SA chip, 50 nM antibody, 25 C, pH 6
[6] = target: biotinylated human single chain FcRn (human) (UniProt P55899); test: SPR Biacore 8K, sc huFcRn on SA chip, 50 nM antibody, 25 C, pH 7.4
[7] = target: human CCL2 (MCP1) - wild type (wt) (human) (UniProt P13500); test: cell-based or functional assay

monomeric Fcγ receptor FcγRIIb (human), sequence (P31994 43-217 limits assumed): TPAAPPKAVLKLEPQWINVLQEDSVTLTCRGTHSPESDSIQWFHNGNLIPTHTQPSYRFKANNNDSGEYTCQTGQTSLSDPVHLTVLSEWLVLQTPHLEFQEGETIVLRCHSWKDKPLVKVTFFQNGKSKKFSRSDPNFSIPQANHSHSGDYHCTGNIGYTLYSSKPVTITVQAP
monomeric Fcγ receptor FcγRIIa (human), sequence (P12318 34-217 limits assumed): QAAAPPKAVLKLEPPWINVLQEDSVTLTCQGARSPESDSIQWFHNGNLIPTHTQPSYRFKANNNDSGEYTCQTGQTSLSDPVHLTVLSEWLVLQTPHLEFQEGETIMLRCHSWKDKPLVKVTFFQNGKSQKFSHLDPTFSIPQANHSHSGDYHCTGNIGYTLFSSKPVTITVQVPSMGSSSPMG
monomeric Fcγ receptor FcγRIIIa (human), sequence (P08637 17-208 limits assumed): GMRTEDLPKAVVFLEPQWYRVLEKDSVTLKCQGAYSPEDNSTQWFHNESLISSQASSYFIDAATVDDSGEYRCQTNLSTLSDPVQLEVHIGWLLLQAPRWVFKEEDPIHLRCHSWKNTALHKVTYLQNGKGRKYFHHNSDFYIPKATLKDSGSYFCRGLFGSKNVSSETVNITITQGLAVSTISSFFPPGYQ

| binding amounts of hFcγRs (RU) per 1 RU Ab [1] | binding amounts of hFcγRs (RU) per 1 RU Ab [2] | binding amounts of hFcγRs (RU) per 1 RU Ab [3] | Binding amount of Ab (RU) per 1RU of FcRn-surface [4] | Binding amount of Ab (RU) per 1RU of FcRn-surface [5] | Binding amount of Ab (RU) per 1RU of FcRn-surface [6] | THP1 chemotaxis [fold change compared to IgG control] [7] | Substance |
| --- | --- | --- | --- | --- | --- | --- | --- |
| 0.001 RU per RU | 0.003 RU per RU | 0 RU per RU | 0.9 RU per RU | 0.35 RU per RU | 0 RU per RU |  | CNTO888 (antibody) |
|  |  |  |  |  |  | 3.7 fold | human CCL2/JE/MCP-1 Antibody (R&D Systems Cat #MAB279) |
